Results: publication PMC4205158 (Structure (London, England : 1993), 2008)
Entries after “also recorded” stand apart in the source; their conditions may differ. Values belong to the molecule of their own block, whether it stands above or below them.

Experiments:
IRAK1b = test: GST-pulldown of IRAK1b; conditions: qualitative; HEK293T lysates; kinase-inactive IRAK1b
IRAK1-ki = test: GST-pulldown of kinase-inactive mutant IRAK1-ki; conditions: qualitative, HEK293T lysates

Kd (Rad9(pT192) peptide): > 100 µM
Molecule: Purified Pellino2 (from UniProt Q9HAT8 1-420) (natural protein)

B1: Pellino2: GST-fusion protein of full-length Pellino2 (human cDNA) (protein)
chain: MFSPGQEEHCAPNKEPVKYGELVVLGYNGALPNGDRGRRKSRFALYKRPKANGVKPSTVHVISTPQASKAISCKGQHSISYTLSRNQTVVVEYTHDKDTDMFQVGRSTESPIDFVVTDTISGSQNTDEAQITQSTISRFACRIVCDRNEPYTARIFAAGFDSSKNIFLGEKAAKWKNPDGHMDGLTTNGVLVMHPRGGFTEESQPGVWREISVCGDVYTLRETRSAQQRGKLVESETNVLQDGSLIDLCGATLLWRTADGLFHTPTQKHIEALRQEINAARPQCPVGLNTLAFPSINRKEVVEEKQPWAYLSCGHVHGYHNWGHRSDTEANERECPMCRTVGPYVPLWLGCEAGFYVDAGPPTHAFTPCGHVCSEKSAKYWSQIPLPHGTHAFHAACPFCATQLVGEQNCIKLIFQGPID
modifications: left off: His6, N-terminal, cleaved
interaction with IRAK1b in GST-pulldown (IRAK1b): are not precipitated; also recorded: do not interact
interaction with IRAK1-ki in GST-pulldown (IRAK1-ki): are not precipitated; also recorded: do not interact
